The EC50 is the concentration giving half of the maximal effect. A word on the Kd: it is a measure of binding affinity in units of concentration. A word on the koff: it is the rate constant with which the complex falls apart. Broadly, the kon is a measure of how fast the partners come together. Broadly, the IC50 is the point on the concentration scale where inhibition reaches its midpoint.

The target of assay [1] is T1, PD1 naturally expressed by activated human lymphocytes (PHA-activated PBMC) (human, UniProt Q15116 25-288). Kind of assay: cell-based or functional assay.
T1 sequence (Q15116 25-288): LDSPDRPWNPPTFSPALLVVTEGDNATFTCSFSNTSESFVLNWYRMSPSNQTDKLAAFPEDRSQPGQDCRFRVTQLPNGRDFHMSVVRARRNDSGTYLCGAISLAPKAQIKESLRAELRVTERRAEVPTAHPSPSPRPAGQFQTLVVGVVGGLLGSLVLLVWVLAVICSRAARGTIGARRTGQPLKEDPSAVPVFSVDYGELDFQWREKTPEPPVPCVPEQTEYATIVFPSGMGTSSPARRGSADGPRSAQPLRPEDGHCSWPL
The target of assay [2] is T2, human CD28-hFc (human, UniProt P10747 19-152).
T2 construct: Commercial protein; also called CD28 (ACRO); not shown: human Fc (hFc)
Kind of assay: ELISA, antigen coated at 1 µg/mL. The text has this:
(§1) A horse radish peroxidase (HRP)-coupled anti-human IgG (F) was used as the secondary antibody. After developed with TMB and terminated, it was read for an OD450 value with a microplate reader.
(In an ELISA, binding on a coated surface is turned into a signal by an enzyme label.)

Assay [3] deals with T3, human ICOS-hFc (human, UniProt Q9Y6W8 21-140).
T3 construct: Commercial protein; also called ICOS (ACRO); not shown: human Fc (hFc)
T3 sequence (looked up): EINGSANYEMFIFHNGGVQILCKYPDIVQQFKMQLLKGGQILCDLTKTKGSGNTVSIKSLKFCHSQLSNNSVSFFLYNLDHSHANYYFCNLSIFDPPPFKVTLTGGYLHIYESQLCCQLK
Nature of the assay: ELISA, antigen coated at 1 µg/mL.
Source text: as §1

For assay [4], the target named is T4, human CTLA4-hFc (human, UniProt P16410 37-162, limits assumed).
T4 construct: Commercial protein; also called CTLA-4 (ACRO); not shown: human Fc (hFc)
T4 sequence (P16410 37-162 limits assumed): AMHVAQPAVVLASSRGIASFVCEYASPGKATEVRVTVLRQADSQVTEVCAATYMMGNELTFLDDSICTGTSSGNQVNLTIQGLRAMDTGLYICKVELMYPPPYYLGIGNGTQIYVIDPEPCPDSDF
Kind of assay: ELISA, antigen coated at 1 µg/mL.
Source text: as §1

Assay [5] deals with T5, recombinant human PD-1 expressed on the surface of CHO cells (CHO-hPD1) (human, UniProt Q15116 25-288).
T5 construct: whole, on cells; also called CHO-PD1; hPD1-transfected CHO cells
T5 sequence (Q15116 25-288): as the sequence (Q15116 25-288) above
Kind of assay: flow cytometry on CHO-hPD1 cells. On the procedure:
(§2) A CHO (Chinese Hamster Ovary Cells) cell line, CHO-hPD1, capable of expressing a recombinant human PD-1 on the cell surface, and a CHO cell line, CHO-cynoPD1, capable of expressing a monkey PD1 on the cell surface were prepared by recombinant technology. […] The specific method was: In order to evaluate the binding of the humanized antibody to the CHO-hPD1, 2×10⁵ CHO-hPD1 cells and the humanized antibody diluted in concentration gradient (with an initial concentration of 30 μg/mL, and diluted in 3-fold gradient) were added into a 96-well plate, and incubated at 4° C. for 30 minutes. The cells were washed once with a buffer (PBS containing 3% BSA) and then added with a PE-labeled anti-human IgG (Fc) Ab (Biolegend) fluorescent secondary antibody, incubated at 4° C. for 30 minutes, then washed once with the buffer and subsequently resuspended in PBS. Thereafter, the cell suspension was subjected to flow cytometric analysis by CytoFlex (Beckman flow cytometer), and the quantity of the antibody bound to the cells was measured according to the mean fluorescence intensity (MFI) of the staining. The same method was used for evaluating the binding of the humanized antibody to the CHO-cyno cells.
On the technique in general: In flow cytometry, cells or beads pass a laser one at a time.

In assay [6] the target is T6, monkey PD1 expressed on the surface of CHO cells (CHO-cynoPD1) (monkey).
T6 construct: whole, on cells
Kind of assay: flow cytometry on CHO-cynoPD1 cells. The protocol: as §2

In assay [7] the target is T1, PD1 naturally expressed by activated …. Kind of assay: flow cytometry on PHA-activated human PBMC. On the procedure:
After being obtained from fresh human peripheral blood by gradient centrifugation of lymphatic separation medium, the PBMCs were adjusted to the density of 1×10⁶ cells/mL and inoculated into T75, and meanwhile added with PHA-L (Sigma) at a final concentration of 1 μg/mL to stimulate the proliferation of lymphocytes. After being allowed to stand in an incubator at 37° C. and 5% CO₂ for 3 days, the cell suspension was taken out and centrifuged. The supernatant was discarded, and the precipitate was resuspended in a buffer (PBS containing 3% BSA) and added into a 96-well U-shaped plate at 2E5/well, then added with different concentration gradients of the humanized antibody, incubated at 4° C. for 30 minutes, and then centrifuged at 300 g for 5 minutes. The cells were washed once with the buffer, and added with a PE-labeled goat anti-human IgG fluorescent antibody (Biolegend), and incubated at 4° C. for 30 minutes. Then cells were centrifuged and washed once, resuspended in PBS, and subsequently analyzed by a CytoFlex flow cytometer to detect the quantity of the antibody bound to the PBMC.

For assay [8], the target named is T7, human PD-1-hFc (human, UniProt Q15116 25-167).
T7 construct: Commercial protein; also called PD-1 (ACRO); not shown: human Fc (hFc)
T7 sequence (Q15116 25-167 limits assumed): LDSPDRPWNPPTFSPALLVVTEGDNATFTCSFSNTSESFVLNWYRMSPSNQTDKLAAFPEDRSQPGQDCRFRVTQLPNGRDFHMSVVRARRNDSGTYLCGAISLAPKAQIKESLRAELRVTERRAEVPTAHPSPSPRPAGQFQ
Nature of the assay: ELISA, antigen coated at 1 µg/mL, antibody 10 µg/mL.
Source text: as §1

Assay [9] concerns the target T2, human CD28-hFc. Described as above.
Source text: as §1

Assay [10] has as its target T3, human ICOS-hFc. The assay is described as above.
Source text: as §1

Assay [11] has as its target T4, human CTLA4-hFc. The description is as above.
Source text: as §1

Assay [12] has as its target T8, PD-1-his (ACRO) recombinant protein (UniProt Q15116 25-167).
T8 construct: Commercial protein; not shown: his tag
Kind of assay: BLI (ForteBio Octet), PD-1-his loaded on sensor, antibody in solution. On the procedure: Finally, analysis was conducted by utilizing a kinetic model, and data processing was conducted.
In general terms: BLI is a label-free optical method that tracks binding on a fibre tip over time.

In assay [13] the target is T5, recombinant human PD-1 expressed on the …. Kind of assay: flow cytometry, blocking of PD-L1-mFc (0.2 µg/mL) binding to CHO-hPD1. The protocol: (§3) The ability of the anti-PD-1 humanized antibody to block the binding of the ligand to a transfected CHO cells which could stably express PD-1 on the surface was analyzed by a flow cytometer.
(§4) The CHO-PD1 cells were resuspended with a buffer (PBS containing 3% BSA), and adjusted to the density of 2×10⁶ cells/mL. The cell suspension was added into a 96-well U-shaped plate at 100 μL/well and centrifuged at 300 g for 5 minutes, and then the supernatant was discarded.
(§5) The cells were centrifuged at 300 g for 5 minutes, washed once with the buffer, added with a PE-labeled goat anti-mouse IgG fluorescent antibody (Biolegend), and incubated at 4° C. for 30 minutes. The cells were centrifuged and washed once, then resuspended in PBS, and subsequently analyzed by a CytoFlex flow cytometer to detect the quantity of the ligand protein bound to the cells, and calculate the IC₅₀ value of the PD-1 antibody in blocking the binding.

The target is the same in assay [14]. Nature of the assay: flow cytometry, blocking of PD-L2-mFc (0.2 µg/mL) binding to CHO-hPD1. The protocol: as §3, §4, §5

T8 sequence (Q15116 25-167 limits assumed): as above

B1: anti-PD-1 humanized antibody c43 (antibody, V domains shown)
VH: QVQLVQSGAEVKKPGASVKVSCKASGYTFTTYYMYWVRQAPGQGLEWIGGINPSNGGTNYAEKFKGRVTLTVDTSTSTAYMELSSLRSEDTAVYYCTRRDSNYDGGFDYWGQGTTVTVSS
VL: DIQMTQSPSSLSASVGDRVTITCRASKSVSTSGYSYMHWYQQKPGKAPKLLIYLAYHLESGVPSRFSGSGSGTDFTLTISSLQPEDFATYYCQHSWELPITFGQGTKLEIKR
Turning to B1, in assay [1], the “IFNγ EC50 (mixed lymphocyte reaction)” value amounted to 2.73 nM. The “IL2 EC50 (mixed lymphocyte reaction)” value in [1] is 2.79 nM. Moreover, the binding result in assay [2], in assay [3] and in assay [4] was “no binding (tested: 10 µg/mL)” each time. In addition, the EC50 is 1.58 nM in [5], 0.894 nM in assay [6] and 0.281 nM in assay [7]. For the same molecule, the OD450 in assay [8] was determined as 1.23 OD450; in assay [9], 0.189 OD450; in [10], 0.131 OD450; in [11], 0.255 OD450. The Kd in assay [12] was less than 0.001 nM. For the same molecule, the koff in [12] was less than 1e-07 s⁻¹. Besides, the kon in [12] stood at 984000 M⁻¹ s⁻¹. Also, the IC50 in assay [13] amounted to 3.14 nM; in assay [14], 7.95 nM.

B2: anti-PD-1 humanized antibody c53 (antibody, V domains shown)
VH: QVQLVQSGAEVKKPGASVKVSCKASGYTFTTYYMYWVRQAPGQGLEWMGGINPSNGGTNYAQKFQGRATMTVDTSTSTAYMELSSLRSEDTAVYYCTRRDSNYDGGFDYWGQGTTVTVSS
VL: DIQMTQSPSSLSASVGDRVTITCRASKSVSTSGYSYMHWYQQKPGKAPKLLIYLAYHLESGVPSRFSGSGSGTDFTLTISSLQPEDFATYYCQHSWELPITFGQGTKLEIKR
Turning to B2, in assay [1], the “IFNγ EC50 (mixed lymphocyte reaction)” value is 6.65 nM. Also, the “IL2 EC50 (mixed lymphocyte reaction)” value in assay [1] was 1.88 nM. Also, the binding result in assay [2], in [3] and in assay [4] was “no binding (tested: 10 µg/mL)” throughout. Further, the half-maximal effective concentration (EC50) in assay [5] came out at 1.71 nM; in [6], 0.743 nM; in assay [7], 0.213 nM. Further, the OD450 in assay [8] was 1.48 OD450; in [9], 0.176 OD450; in assay [10] it was 0.133 OD450; in assay [11], 0.239 OD450. Besides, the Kd in assay [12] is less than 0.001 nM. In addition, in assay [12], the koff was less than 1e-07 s⁻¹. Further, the on-rate (kon) in [12] is 979000 M⁻¹ s⁻¹. Also, the IC50 in assay [13] came out at 3.02 nM; in assay [14], 7.05 nM.

B3: anti-PD-1 humanized antibody c22 (antibody, V domains shown)
VH: QVQLVQSGAEVKKPGASVKVSCKASGYTFTTYYMYWVRQAPGQGLEWMGGINPSNGGTNFNEKFKSRVTMTVDKSTSTAYMELSSLRSEDTAVYYCTRRDSNYDGGFDYWGQGTTVTVSS
VL: DIQLTQSPSSLSASVGDRATITCRASKSVSTSGYSYMHWYQQKPGKAPKLLIYLAYHLESGVPSRFSGSGSGTDFTLTISSVQPEDFATYYCQHSWELPITFGQGTKLEIKR
For the molecule B3, the “IFNγ EC50 (mixed lymphocyte reaction)” value in assay [1] worked out at 0.727 nM. Moreover, the “IL2 EC50 (mixed lymphocyte reaction)” value in [1] was determined as 13.3 nM. In addition, the binding result in assay [2], in assay [3] and in assay [4] was “no binding (tested: 10 µg/mL)” each time. The results for the half-maximal effective concentration (EC50) in assay [5], in [6] and in [7] were 1.68 nM, 0.63 nM and 0.141 nM, respectively. The OD450 in [8] was 1.33 OD450; in assay [9], 0.18 OD450; in assay [10], 0.117 OD450; in [11], 0.209 OD450. The Kd in [12] is less than 0.001 nM. Further, the koff in assay [12] was less than 1e-07 s⁻¹. Further, the kon in assay [12] is 985000 M⁻¹ s⁻¹. In addition, the IC50 in assay [13] came out at 3.1 nM; in [14] it was 6.88 nM.

Source of the values: patent publication US20240287184A1 (GUANGDONG FAPON BIOPHARMA, published 2024).
